Reference: US20040028607

Legend:
[1] = biological target: T1, 9-amino acid synthetic alpha-tubulin peptide MPSD(AcK)TIGG, acetylated on lysine-40
T1 chain: MPSDXTIGG

[2] = biological target: PCAF-acetylated calf thymus core histones
[3] = biological target: monoacetylated histone H3 peptide …(AcK)APRKQL, acetylated on lysine-14

Protein	V/K, deacetylation of tubulin peptide, HPLC [1] [M⁻¹ s⁻¹]	kcat (printed 'kea'), deacetylation of tubulin peptide, HPLC [1] [s⁻¹]	apparent V/K for deacetylation of core histones, fold over SIRT2 [2]	fold preference for H3 peptide relative to SIRT2 (V/K and Km) [3]	kcat (printed 'km values'), deacetylation of acetylated H3 peptide [3]	fold preference for tubulin peptide relative to Hst2p (kcat and V/K) [1]
recombinant yeast Hst2p (protein) MSVSTASTEMSVRKIAAHMKSNPNAKVIFMVGAGISTSCGIPDFRSPGTGLYHNLARLKLPYPEAVFDVDFFQSDPLPFYTLAKELYPGNFRPSKFHYLLKLFQDKDVLKRVYTQNIDTLERQAGVKDDLIIEAHGSFAHCHCIGCGKVYPPQVFKSKLAEHPIKDFVKCDVCGELVKPAIVFFGEDLPDSFSETWLNDSEWLREKITTSGKHPQQPLVIVVGTSLAVYPFASLPEEIPRKVKRVLCNLETVGDFKANKRPTDLIVHQYSDEFAEQLVEELGWQEDFEKILTAQGGMGDNSKEQLLEIVHDLENLSLDQSEHESADKKDKKLQRLNGHDSDEDGASNSSSSQKAAKE	14.9	0.00254 ± 0.0003	Hst2p exhibited a 7-fold higher V/K value than SIRT2	˜200-fold stronger preference for H3 peptide relative to SIRT2	The km values (˜0.2 s^-1) were similar between the two enzymes	–
recombinant human SIRT2 (6xHis-tagged, with factor Xa cleavage site, purified from E. coli) (protein) MAEPDPSHPLETQAGKVQEAQDSDSDSEGGAAGGEADMDFLRNLFSQTLSLGSQKERLLDELTLEGVARYMQSERCRRVICLVGAGISTSAGIPDFRSPSTGLYDNLEKYHLPYPEAIFEISYFKKHPEPFFALAKELYPGQFKPTICHYFMRLLKDKGLLLRCYTQNIDTLERIAGLEQEDLVEAHGTFYTSHCVSASCRHEYPLSWMKEKIFSEVTPKCEDCQSLVKPDIVFFGESLPARFFSCMQSDFLKVDLLLVMGTSLQVQPFASLISKAPLSTPRLLINKEKAGQSDPFLGMIMGLGGGMDFDSKKAYRDVAWLGECDQGCLALAELLGWKKELEDLVRREHASIDAQSGAGVPNPSTSASPKKSPPPAKDEARTTEREKPQ	894 ± 100	0.144 ± 0.005	–	–	The km values (˜0.2 s^-1) were similar between the two enzymes	This difference was 60-fold
